Laboratory results from PMC12013513 (2025).

B1: GST-ANI-1^C-term (681-1159 AA) [C. elegans] / 10xHis-RHO-1^WT (wild type RHO-1, 1-188 AA) [C. elegans] (parent complex)
chain 1: DDDATTQFPVPERSRKSSSQLAYSVSFYRKIQRDRNEESSTVLAGPVISQISPSAPPMSSSLTSQQKLRQLTTGPANGARIVESAKDAHDRIKRAIQVEEQLVAQSKRAMILARDKPSFRGSREEFEAQWAMLRHVEKHRALLTEYDRLKRDGPRIIDGPRGTITVSQLSVNMARDYVSANIASSKKSDEVFYFAAILRYGEQVDVSKMVTSDGGLNRRGVLEFPVPLMLTGIPPDFRATVEIYGQRSMRESTSHEDKYKLKNSTFKAKTRNTFLGGGSTSSANQSLFVDPAASSSSTSSTTSNFNLLGTFSFDINCPGKHLYNMSHTVYPLEGITQMKVRKQAIDGADITYHGFLSMYQRTGEGLGSWTRYWCALENGEMKFWKQPEDEGTKGYTALMDLSTCCRSEGASVVEDICPFPNSFHIDVWAPKMDTSDPRGIERLRVMLAADTAQDLQTWLSLINSTSKQLCTWRNPIVNQ
chain 2: not shown

Variants of: B1
Assay: pull-down; parent: 14; read off a plot

response	Variant
~17 % of Bound RHO-1	chain 1 A109D, chain 1 E127K
